According to patent publication US20060035329A1 (CARNEGIE INSTITUTION OF WASHINGTON, published 2006):
Each block holds one molecule with its values, some of them ahead of it.

How the values were obtained:
[1] = target: LexA-hr (hr amino acids 575-1215 fused to the lexA DNA binding domain) (rat); test: yeast two-hybrid, β-galactosidase activity with TRIAC (10^-6 M) against without hormone
[2] = target: TR (thyroid hormone receptor co-expressed with hr in the reporter assay); test: cell-based or functional assay
[3] = target: T1, hr fusion protein (hr amino acids 575-1215 fused to either GST or TrpE; which one is not said) (rat, UniProt P97609 549-1181); test: far western, 35S-labeled probe on immobilized hr fusion protein
T1 construct: also called the hr fusion protein; not shown: fusion partner is GST or TrpE
T1 sequence: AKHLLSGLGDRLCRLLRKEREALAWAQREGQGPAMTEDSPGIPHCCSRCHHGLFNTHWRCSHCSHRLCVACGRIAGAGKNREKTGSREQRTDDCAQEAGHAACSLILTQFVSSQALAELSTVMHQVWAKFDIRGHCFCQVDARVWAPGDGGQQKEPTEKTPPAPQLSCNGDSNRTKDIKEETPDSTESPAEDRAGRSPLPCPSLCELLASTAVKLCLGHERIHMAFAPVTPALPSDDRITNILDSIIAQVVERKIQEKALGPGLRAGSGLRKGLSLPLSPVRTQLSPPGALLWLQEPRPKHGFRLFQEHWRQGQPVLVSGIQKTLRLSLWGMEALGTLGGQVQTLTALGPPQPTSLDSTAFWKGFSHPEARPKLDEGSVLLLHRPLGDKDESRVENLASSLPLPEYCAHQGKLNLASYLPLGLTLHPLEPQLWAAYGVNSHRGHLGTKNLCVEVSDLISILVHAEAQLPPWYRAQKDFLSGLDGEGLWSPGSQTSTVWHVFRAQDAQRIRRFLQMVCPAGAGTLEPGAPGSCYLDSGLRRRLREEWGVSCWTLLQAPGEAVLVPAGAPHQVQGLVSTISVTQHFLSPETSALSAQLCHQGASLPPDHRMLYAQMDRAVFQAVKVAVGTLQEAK

fold reduction of interaction by hormone [1]: 2 fold
Molecule: TRα1 (as tested in the two-hybrid assay) (receptor)

thyroid hormone induced transcription (TRE-containing reporter) [2]: 2 fold
Molecule: hr (hairless gene product expressed from an expression construct containing the hr gene) (from UniProt P97609 1-1181)

binding result [3]: no binding
B1: 35S-RAR (retinoic acid receptor, from pCMX hRARα) (receptor, human, UniProt P10276 1-462, looked up)
chain: MASNSSSCPTPGGGHLNGYPVPPYAFFFPPMLGGLSPPGALTTLQHQLPVSGYSTPSPATIETQSSSSEEIVPSPPSPPPLPRIYKPCFVCQDKSSGYHYGVSACEGCKGFFRRSIQKNMVYTCHRDKNCIINKVTRNRCQYCRLQKCFEVGMSKESVRNDRNKKKKEVPKPECSESYTLTPEVGELIEKVRKAHQETFPALCQLGKYTTNNSSEQRVSLDIDLWDKFSELSTKCIIKTVEFAKQLPGFTTLTIADQITLLKAACLDILILRICTRYTPEQDTMTFSDGLTLNRTQMHNAGFGPLTDLVFAFANQLLPLEMDDAETGLLSAICLICGDRQDLEQPDRVDMLQEPLLEALKVYVRKRRPSRPHMFPKMLMKITDLRSISAKGAERVITLKMEIPGSMPPLIQEMLENSEGLDTLSGQPGGGGRDGGGLAPPPGSCSPSLSPSSNRSSPATHSP
modifications: 35S-methionine label

binding result [3]: no binding
B2: 35S-RXR (retinoid X receptor, from pCMX hRXRα) (receptor, human, UniProt P19793 1-462, looked up)
chain: MDTKHFLPLDFSTQVNSSLTSPTGRGSMAAPSLHPSLGPGIGSPGQLHSPISTLSSPINGMGPPFSVISSPMGPHSMSVPTTPTLGFSTGSPQLSSPMNPVSSSEDIKPPLGLNGVLKVPAHPSGNMASFTKHICAICGDRSSGKHYGVYSCEGCKGFFKRTVRKDLTYTCRDNKDCLIDKRQRNRCQYCRYQKCLAMGMKREAVQEERQRGKDRNENEVESTSSANEDMPVERILEAELAVEPKTETYVEANMGLNPSSPNDPVTNICQAADKQLFTLVEWAKRIPHFSELPLDDQVILLRAGWNELLIASFSHRSIAVKDGILLATGLHVHRNSAHSAGVGAIFDRVLTELVSKMRDMQMDKTELGCLRAIVLFNPDSKGLSNPAEVEALREKVYASLEAYCKHKYPEQPGRFAKLLLRLPALRSIGLKCLEHLFFFKLIGDTPIDTFLMEMLEAPHQMT
modifications: 35S-methionine label
